# Where no end group is shown, it is not given here.
# Legend:
# Assay type in all cases: physicochemical
# [1] = Stability of PACAP suspended in suspension vehicles at elevated temperature, RP-HPLC and SEC
# Text: Due to the nature of the suspension vehicles used in implantable drug delivery systems, mixing of the suspension formulation bulk and subsequent loading of the suspension formulation into the implantable systems are often conducted at elevated temperatures. To evaluate the stability of PACAP analog (or simply “PACAP”) suspended in various suspension vehicles at elevated temperatures, unprotected, lyophilized PACAP was suspended in four different suspension vehicles (LL/GML/PVP, BA/PVP, EHL/PVP, and PEG/PVP). To suspend the PACAP into the suspension vehicles 3.3 mg PACAP acetate was manually mixed into each of the different suspensions to achieve a PACAP content of approximately 3%. The stability of the PACAP suspension formulations was then evaluated after incubation at 65° C. for four hours.
# The PACAP suspensions were then further incubated at 37° C. and 65° C. an additional 17 days. […] (Table 3). […] In addition, other chemical degradation contributed to the loss of lyophilized PACAP.
# [2] = Total degradation of lyophilized PACAP with excipients stored at 2-8, 40 and 60° C. up to 3 months, RP-HPLC
# Method: (§1) The preliminary findings from the processing study led to the evaluation of the stabilization effect of sugar (sucrose) and nonionic surfactant (Tween 80) on PACAP lyophiles and suspensions. In order to carry out the evaluation, samples were prepared with PACAP in 10 mM NH4OAc (pH6.4) at 3 levels of Tween 80 (0, 0.05, 0.2 wt %) and sucrose (0, 0.5/1, 1/1, w/w). A solution of PACAP in 10 mM of histidine (pH 6.4) and sodium succinate (pH 5.6) was also prepared. Each of the PACAP solutions were lyophilized to obtain reconstituted, solid-state PACAP particles, and individual vials were provided 3.3 mg samples of the material reconstituted from each of the solutions, with the samples containing (1) no additive, (2) 0.2 wt % Tween 80, (3) 0.2 wt % Tween 80+0.5:1, w/w sucrose, and (4) 1:1, w/w sucrose. The various 3.3 mg samples were manually mixed with LL/GML/PVP and BA/PVP to provide suspension formulations having about 3% PACAP content, and the suspension formulations were subjected to 4 hours of incubation at 65° C. After the initial incubation period, the various suspension formulations were stored as described below and evaluated by RP-HPLC and SEC.
# (§2) Solid-state PACAP particles were prepared via a lyophilization process (FTS Duro stop) from three different polypeptide solutions prepared in NH4OAc buffer at pH6. Each of the three different solutions contained a different amount of sucrose, with the first containing no sucrose, the second containing a weight ratio of sucrose to PACAP of 0.5/1, and the third containing a weight ratio of sucrose to PACAP 1/1. Solid-state PACAP particles prepared from each of the three solutions were stored at control temperatures ranging from 2° C. to 8° C., a temperature approximating physiologic temperature (40° C.), and a temperature exceeding physiologic temperature (60° C.). The stability of the PACAP contained within each group of solid-state PACAP particles was assessed at 24 days and 3 months. To assess PACAP stability within each group of particles, the particles were reconstituted in water and analyzed by reversed-phase RP-HPLC (acetonitrile gradient elution with mobile phase containing 0.1% trifluoroacetic acid, and a UV detection at 214 nm) and size exclusion HPLC (SEC, isocratic elution, 30% acetonitrile mixed with 70% of aqueous solution containing 0.1% trifluoroacetic acid and 200 mM of sodium chloride, and a UV detection at 220 nm).
# [3] = Aggregation of lyophilized PACAP and PACAP suspensions with excipients stored at 2-8, 40 and 60° C. up to 3 months, SEC
# Method: as §1, §2
# [4] = Aggregation / dimer formation in solid-state PACAP particles stored at 60° C. for two months, SEC; conditions: for dimer formation: two months of storage at 60° C.
# Method: (§3) The effect of pH on the stability of PACAP molecules over time was evaluated. In order to make such an evaluation, PACAP raw material was first dissolved in H2O in three different solutions, with the first solution having a pH of 2, the second solution having a pH of 4, and the third solution having a pH of 6. The pH of each solution was adjusted to the desired value using diluted HCl. Each of the three solutions was placed in lyophilization vials, and solid-state PACAP particles were produced from each of the three solutions through the lyophilization process already described herein. Particles from each of the three solutions were then stored for two months at 60° C., and the stability of the PACAP included in the solid-state particles was thereafter evaluated using RP-HPLC and SEC.
# (§4) Solid-state PACAP particles were prepared from each of the eight solutions through lyophilization, as has already been described, and solid-state PACAP particles produced from each of the eight solutions were then stored at 60° C. for two months. After exposing the various solid-state PACAP particles to a temperature of 60° C. over two months, the stability of the PACAP included in various particles was evaluated using RP HPLC and SEC processes.
# PACAP particles containing histidine buffer (Sigma) and PACAP particles containing histidine buffer in combination with calcium chloride (CaCl2, J T Baker), sucrose and sodium dodecyl sulfate (SDS, Pierce) were prepared and the stabilization of PACAP provided by such particles was evaluated. To prepare the PACAP particles evaluated, six different aqueous solutions were prepared. Each solution included a desired amount of PACAP dissolved therein, and the pH of each of the six solutions prepared was adjusted to 6 by the addition of diluted HCl. The first aqueous solution was prepared without additives (histidine buffer, CaCl2, sucrose, or SDS). The second aqueous solution was prepared with a 10 mM concentration of histidine buffer. The third aqueous solution was formulated with a 10 mM concentration of histidine buffer as well as a 10 mM concentration of CaCl2. The fourth aqueous solution was formulated with a 10 mM concentration of histidine buffer and included sucrose at a 0.5/1 weight ratio (sucrose/PACAP) relative to PACAP. The fifth aqueous solution was prepared with a 10 mM concentration of histidine buffer, a 10 mM concentration of CaCl2, and an amount of sucrose providing a 0.5/1 weight ratio (sucrose/PACAP) relative to PACAP. The sixth aqueous solution was formulated with a 10 mM concentration of histidine buffer and 0.02 wt % SDS. Solid-state PACAP particles were then produced from each of the six solutions using the lyophilization process already described herein. The PACAP particles produced from each solution were then stored at 60° C. for two months, and the stability of the PACAP contained within the various different particles was evaluated using RP-HPLC and SEC processes after such storage. […] In addition, sucrose, CaCl2 and SDS further stabilized the peptide, providing roughly 14 fold to 20 fold decreases in aggregate formation.
# To evaluate the stabilizing effect of CaCl2 in PACAP particles prepared at acidic and near neutral pH, four different types of particles were formulated, stored at 60° C. for two months, and then analyzed for PACAP degradation. The four different particle formulations were prepared from four different aqueous solutions. Each of the four solutions included a desired amount of PACAP dissolved therein and the pH of each solution was adjusted to the desired level using diluted HCl. The first aqueous solution was formulated without additives (histidine or CaCl2), and the pH of the first solution was adjusted to 2. The second aqueous solution was formulated with a 10 mM concentration of CaCl2, and the pH of the second solution was adjusted to 2. […]
# [5] = Stability of solid-state PACAP particles stored at 60° C. for two months, RP-HPLC (recovery / total degradation)
# Method: as §3, §4
# PACAP particles containing histidine buffer (Sigma) and PACAP particles containing histidine buffer in combination with calcium chloride (CaCl2, J T Baker), sucrose and sodium dodecyl sulfate (SDS, Pierce) were prepared and the stabilization of PACAP provided by such particles was evaluated. To prepare the PACAP particles evaluated, six different aqueous solutions were prepared. Each solution included a desired amount of PACAP dissolved therein, and the pH of each of the six solutions prepared was adjusted to 6 by the addition of diluted HCl. The first aqueous solution was prepared without additives (histidine buffer, CaCl2, sucrose, or SDS). The second aqueous solution was prepared with a 10 mM concentration of histidine buffer. The third aqueous solution was formulated with a 10 mM concentration of histidine buffer as well as a 10 mM concentration of CaCl2. The fourth aqueous solution was formulated with a 10 mM concentration of histidine buffer and included sucrose at a 0.5/1 weight ratio (sucrose/PACAP) relative to PACAP. […] The PACAP particles produced from each solution were then stored at 60° C. for two months, and the stability of the PACAP contained within the various different particles was evaluated using RP-HPLC and SEC processes after such storage. […]
# To evaluate the stabilizing effect of CaCl2 in PACAP particles prepared at acidic and near neutral pH, four different types of particles were formulated, stored at 60° C. for two months, and then analyzed for PACAP degradation. […]
# [6] = Example 2 lyophilized formulations, except samples containing 1:1 w/w sucrose
# [7] = lyophilized PACAP, ammonium acetate app. pH 6.4, 40° C. for 3 months (FIG. 1)
substance,measurement,setting,value
PACAP analog: synthetic PACAP-R3 agonist analog manufactured by Bayer; 31 amino acid sequence HSDAVFTDNYTRLRKQVAAKKYLQSIKNKRY (SEQ. I.D. NO. 1) (HSDAVFTDNYTRLRKQVAAKKYLQSIKNKRY; ends and bridges not checked),stability of PACAP suspensions,[1]; further incubated at 37° C. an additional 17 days,marginal stability loss
same,stability of PACAP suspensions,[1]; further incubated at 65° C. an additional 17 days,relatively more aggressive degradation
same,stability of PACAP suspension formulations,"[1]; unprotected lyophilized PACAP, about 3%, in LL/GML/PVP, BA/PVP, EHL/PVP, PEG/PVP, 65° C. for four hours",stable
same,rate of total degradation at 60° C. relative to 40° C.,[2]; [6],about 5 times
same,rate of total degradation (RP HPLC) at 60° C. relative to 40° C.,"[2]; Example 3, NH4OAc buffer pH6, except particles with PACAP to sucrose weight ratio of 1/1",about 5 times
same,total rate of degradation at 60° C. relative to 40° C.,[2]; PACAP analog contained within particles,approximately five times higher
same,time stable,"[2]; lyophilized PACAP without a stabilizer, at 4° C.",at least 3 months
same,estimated total degradation,"[2]; lyophilized PACAP, apparent pH 6.4 in ammonium acetate, equal amount of sucrose (w/w), in 6 months at 40° C.",8.4%
same,rate of aggregation at 60° C. relative to 40° C.,[3]; [6],approximately 10 times
same,rate of aggregation (SEC) at 60° C. relative to 40° C.,"[3]; Example 3, NH4OAc buffer pH6, sucrose 0, 0.5/1, 1/1, all formulations tested",10 times
same,effect of sucrose on aggregate formation in suspensions,"[3]; PACAP suspensions in BA/PVP and LL/GML/PVP, 40° C.",suppressed aggregate formation
same,effect of Tween 80 on aggregation,[3]; [7],no added effect
same,effect of sucrose on aggregation,[3]; [7],suppressed PACAP aggregation
same,effect of histidine and sodium succinate on aggregate formation,"[3]; lyophilized formulations, 40° and 60° C. over 3 months",better stabilizers than ammonium acetate
same,rate of aggregation or dimerization at 60° C. relative to 40° C.,[3]; solid-state PACAP particles,ten times higher
same,dimer formation,[4]; particles at acidic pH with Ca2+/PACAP analog 4/1 molar ratio,0.8%
same,dimer formation,[4]; particles at acidic pH with trehalose/PACAP analog 0.55/1 w/w,0.7%
same,decrease in aggregate formation,"[4]; particles from pH 6 solution with 10 mM histidine buffer vs no additives, 60° C. for two months",roughly 6 fold
same,dimer formation,"[4]; particles lyophilized from stabilizing solution of apparent pH 2 (diluted HCl), no excipient",1.1%
same,improvement in preventing aggregate formation,"[4]; particles prepared at pH 6 with sucrose (7.3 molar equivalent), 60° C. for two months",~6 fold
same,improvement in preventing aggregate formation,"[4]; particles prepared at pH 6 with trehalose (7.3 molar equivalent), 60° C. for two months",~4 fold
same,effect of acidic pH on stability,"[5]; particles lyophilized at pH 2, 4, 6 (HCl), two months at 60° C. (FIG. 9)",greatly improved stability
same,effect of trehalose and methyl MP on stability,"[5]; particles prepared at pH2, relative to pH2 without stabilizing sugar, 60° C. for two months",additive stability
same,effect of sucrose on stability,"[5]; particles prepared at pH2 with sucrose, 60° C. for two months",significant destabilizing effect
same,effect of CaCl2 on stability,"[5]; particles with 10 mM CaCl2 at both pH 2 and 6, 60° C. for two months",further improved the stability

# From US20060198894A1, “Stabilized, solid-state polypeptide particles” (priority 2002, published 2006)
